Reference: the supplement of paper PMC12764529
± gives the half width of the 95% confidence interval.

What was measured:
[1] = folding stability dG unfold from trypsin proteolysis; higher = more stable
How it was run: (§1)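 K50 was inferred by Bayesian fitting of sequencing counts obtained after protease digestion of designed mini-proteins. Unfolding free energy was derived by comparison with a sequence-predicted unfolded-state K50 and a shared folded-state K50, for each protease or both combined. The mini-proteins were under 80 residues, had no cysteine, were carried in a PA-tagged cDNA display construct, and were kept only if AlphaFold2 dimer inter-PAE exceeded 15.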

[2] = folding stability dG unfold from chymotrypsin proteolysis; higher = more stable
How it was run: as §1

[3] = folding stability dG unfold (combined trypsin and chymotrypsin); higher = more stable
How it was run: as §1

Sequence | folding stability dG unfold [1] [kcal/mol] | folding stability dG unfold [2] [kcal/mol] | folding stability dG unfold [3] [kcal/mol]
SAGMTVSTETTTFTDPAGFETTVTTLTTTHPDGSVTSTPTTTVTAVPVPPPPAPVPVDPANPDNPALLSAGG [r19_12_JUSTAS] | 0.461 ± 0.038 | -0.509 ± 0.095 | 0.163 ± 0.025
SAGMVATLYDPNLPPVSVGITETVTVPHPEGFTVTVTLSSDGTATVTPSDGSSTTLPDASEVRVTATPASAG [r5_869_JUSTAS] | 1.31 ± 0.035 | 0.921 ± 0.021 | 1.1 ± 0.044
SAGMVEVLEEKTDPNSDLVTVTLYAPDVPDGFRVVVYPKDGVPIEISIKRGEEVVLKLPANVEKIEFIGSAG [r14_671_JUSTAS] | 2.55 ± 0.083 | 2.41 ± 0.044 | 2.51 ± 0.092
SAGMVEVTVTIIPKKVKDKWVNEAVVSITVPGGPTSTITMPFGSKEEAIKYLKEKGLEVSEENVSVEIESAG [r5_233_JUSTAS] | 2.31 ± 0.12 | 3.395 ± 0.028 | 3.23 ± 0.097
SAGMVIELKTEEEAKAKAEEIAKKNPEANVTLVVTDPETGVKTVIPVKIESPKPKPEFDKKNGKYKDKGSAG [r5_870_JUSTAS] | -0.126 ± 0.2 | -0.455 ± 0.45 | -0.0134 ± 0.35
SAGMVIKVKVKNKDGEELELVIEIPEEELPEELTEEELKELAKKLAEELAKEGKVEVVEVEIVEPEELSAGG [r19_27_TrROS_Hall] | 2.39 ± 0.26 | 1.8 ± 0.13 | 2.03 ± 0.25
SAGMVIPILLKPEPERPEEVEKKAIEFANKLKPLNLPNVKIKVYRAPYVDPETGKTTVLYLVLIEVEPPSAG [r5_49_TrMRF] | 1.83 ± 0.1 | 2.79 ± 0.13 | 2.4 ± 0.19
SAGMVITVPSDVPVEELLELARELARELGGGRVEVRTHPDNPEIVTATIDIPGTGKRILIINAPPGVLASAG [r5_912_TrMRF] | 2.66 ± 0.038 | 2.37 ± 0.028 | 2.52 ± 0.048
SAGMVIVDPKTKKKITFDKESGEIYIEVDGKKKKIKLKPGEKVEIEIIEKDGKLIIKIKANGKIIEIEPSAG [r5_858_TrROS_Hall] | 1.56 ± 0.17 | 2.09 ± 0.12 | 1.75 ± 0.2
SAGMVKAKLKVIPVTVDGKPKLYVKVELEIPGGPKFELVFETGSPEKAKELLEKLGLKVKDEDIEIEESSAG [r5_233_TrMRF] | 2.83 ± 0.11 | 3.69 ± 0.14 | 3.34 ± 0.18
SAGMVKITVPSSVGPVDPSKALTFEKDDTRYILVPGEVAKEIEEKYPDLPIEIEPMSEEEAEKILKELSAGG [r19_271_JUSTAS] | -0.0536 ± 0.2 | 0.624 ± 0.16 | 0.258 ± 0.41
SAGMVLEYEGVDEEEKLLARAEELRAELRARHPRVRVELEVEVKPTPGNKYRYRVTLTIEPLAPDEARASAG [r5_936_JUSTAS] | 1.75 ± 0.11 | 2.09 ± 0.11 | 1.99 ± 0.15
SAGMVRIETYTHPDGTLRLVVYRPETGERAVFEFPLEDPEKFREAVEELAERLREEGFPVEVDIRPTLPSAG [r5_815_TrMRF] | 3 ± 0.086 | 4.296 ± 0.023 | 3.97 ± 0.049
SAGMVTLRVKLKDGRELEIQLASEEEIESLPPGAKVIPIPAESEEEALEAAARLLAEEEGLEIEEVEKVSAG [r5_119_TrROS_Hall] | 0.671 ± 0.022 | 0.564 ± 0.074 | 0.638 ± 0.049
SAGMYLVKITVTNEDGEKKEITVLVEAETEEEAREAAEELARELAEKYPEKIVEVKVEVVKLPPEVEPSAGG [r19_335_TrROS_Hall] | 4.12 ± 0.19 | 4.77 ± 0.16 | 4.98 ± 0.66
SAGMYTITISRLPGGEYEVRVTDAANGEEVARRPVASEEEARAEAERIAAEIAEADPDVEVRVSESDAESAG [r5_383_JUSTAS] | 2.51 ± 0.066 | 2.959 ± 0.023 | 2.83 ± 0.04
SAGNIKIKEVEINDNTLTISYRMPGSGMWVKASIQADKGAIKIKSEYYPPKGKPIGEEEFTVPLDELKLSAG [r5_308_TrROS] | 0.979 ± 0.042 | 1.74 ± 0.31 | 1.45 ± 0.28
SAGNIKISYDPDDGWLTITFPVAPGQEFSFKLNIMLPENGAKIKNVEVTGPLKDGQPVTITMKVTGIKPSAG [r5_737_TrROS] | 2.2 ± 0.13 | 3.77 ± 0.064 | 3.27 ± 0.11
SAGNIMVQVEPDPGGTVKVEIMFMIPLPNGWPIMIQIEWEVRVDEDGEPELKMPIEIFFSEEALDKGFSAGG [r19_63_TrROS] | 2.06 ± 0.11 | 1.99 ± 0.029 | 2.09 ± 0.13
SAGNSNTRYIVRIKIKKYNPETGKIEEIEIDVPISDDDLNIPVEKIIEALKKAFPNTEIEAEITKVPASAGG [r19_189_TrMRF] | 3.77 ± 0.29 | 3.88 ± 0.13 | 3.74 ± 0.17
SAGNVTIRISFYPRKDGWFFRIKVHFDGKPRELMIPPDDSAEDLADELEKKLGADVTDIEVEWMPLEDGSAG [r5_181_TrROS] | 3.27 ± 0.1 | 4.25 ± 0.083 | 3.88 ± 0.12

Sequence | folding stability dG unfold [1] [kcal/mol] | folding stability dG unfold [2] [kcal/mol] | folding stability dG unfold [3] [kcal/mol]
SAGPAPGAPWEKVEIVAEAWVPTAGGKAVPVVLARAPDGSLLATFPDGTVRVVVPGAGPEVTVELPLASAGG [r19_199_TrMRF] | 0.115 ± 0.046 | 2.032 ± 0.016 | 1.62 ± 0.065
SAGPEKPFDIVIVEVKSMEVHEDPNGRRSVRIPVVARIPGGYYIRFEIWINPPTGNVSIDWEIVPLDDSAGG [r19_320_TrROS] | 2.73 ± 0.047 | 4.21 ± 0.12 | 3.82 ± 0.14
SAGPEREVEVETLVIEAEDGKERLVLRLVRVDGRLYLEVRRYRDGKWEEVARFEAPEEITLSPELLKALSAG [r5_490_TrROS_Hall] | 4.09 ± 0.091 | 4.219 ± 0.039 | 4.16 ± 0.078
SAGPFILVKFVTPDGRPLYYVIEIPESEEPEKLTLEQALEVAEAIAKALASKGGFEVKEVKIVSPEEFSAGG [r19_27_TrMRF] | 3.43 ± 0.083 | 3.802 ± 0.023 | 3.66 ± 0.057
SAGPGAELVAEFEVELGDRGARIRIYRAPDFLIIRVDYPDGTVPVFRIDPRTGRIVEVRTFRVRPDLPLSAG [r14_676_TrMRF] | 2.56 ± 0.045 | 1.91 ± 0.098 | 2.28 ± 0.11
SAGPIKELLEFLKANPDAVVEFEFTLPNGAKVKIKAKKFPDAVVLEVTTIDPNNKKPITGTITIPLPESAGG [r19_143_TrMRF] | 4.15 ± 0.13 | 3.49 ± 0.072 | 3.81 ± 0.13
SAGPKMKPIPFEFRNPDNGHKVKISVYYNPNGKRKIMITNPGDGRIYTFKINPGGIEIEKEIPLDDIKFSAG [r5_619_TrROS] | 1.13 ± 0.13 | 0.857 ± 0.67 | 0.83 ± 0.36
SAGPKNREIKVRIQFNGNWVEYKMPDNDLKELVKNGGLQIAGVDPEKDEIMIQIPVPPPKPDPEDGKPKSAG [r5_868_TrROS] | -0.0867 ± 0.19 | 1.23 ± 0.083 | 0.773 ± 0.15
SAGPKVKLIKAEFFPDGRLVVYAEVESSNGEPAFAVGVFDPRNPNKAHVKVYNPSTGKVSEFEVTVTPGSAG [r5_345_TrMRF] | 2.57 ± 0.054 | 3.24 ± 0.042 | 3 ± 0.035
SAGPLPEDVAAGKPVDVEAPIPLRRKDGDLLAVFPITGPMTVKELLEVLEAIRERARELDLPPVEDLDRSAG [r5_606_TrMRF] | 0.36 ± 0.047 | -0.268 ± 0.21 | 0.181 ± 0.065
SAGPLTVTVEGDTLTVTVPLTDVPADATVRVTVTVGDKTEEYTVPPSESITVTVPSSAVEVTVERLPPASAG [r5_867_JUSTAS] | 2.09 ± 0.085 | 2.44 ± 0.082 | 2.36 ± 0.12
SAGPMTLEILYKRPANEPFTLEDLELAKEVEEAVAALVPSKYKVRIKSIEYEKYPDYYYIRVTIEVEKPSAG [r5_121_TrMRF] | 4.57 ± 0.13 | 4.71 ± 0.061 | 4.64 ± 0.083
SAGPNLENLEIVEIKAEVLPDNSVIVPLKVRNDNGEEEEVWGRVGNGIVTLTYPNGFPAVAFIPPSAFSAGG [r19_84_TrMRF] | 0.683 ± 0.033 | 0.576 ± 0.089 | 0.651 ± 0.051
SAGPPKKVEIPVRYPFDGWEIMIQIDPKDPKIEIHVHNPEHRERAREYARTIARIFQENGIPVEIEPWSAGG [r19_354_TrROS] | 1.48 ± 0.057 | 1.91 ± 0.095 | 1.73 ± 0.21
SAGPPVEIPITIKIRYWKPDPDGPKPVEERTIPIPVRMPPDQLDDPAFNNFIKEALDELPPGIRMIEITSAG [r5_849_TrROS] | 0.526 ± 0.042 | 1.28 ± 0.064 | 1.07 ± 0.068
SAGPPVLALFTGSPEDVQELLDRLPPDFEVEVGRLPDLYVARFPPDVPPGTVLLPGADGRPAVVEVVEASAG [r5_123_TrMRF] | 0.526 ± 0.041 | 1.68 ± 0.037 | 1.14 ± 0.12
SAGPVTIPIFYRVPPGEPMTPEAKEFAIELAKYIARLFPPGYKIEIDSIEWERHPNYYYFRVTIEIEPPSAG [r5_121_TrROS] | 3.64 ± 0.16 | 3.8 ± 0.085 | 3.62 ± 0.27
SAGPVVVDPNGKLLPLKVKAVFVIDPELLEEKAKESDNSLEKAIRDLVKELEAELKAKGYDVEVEGIGSAGG [r19_305_TrMRF] | 1.12 ± 0.067 | 1.97 ± 0.049 | 1.68 ± 0.061
SAGPWMPYYVKVKFPDEEKLEKLVDEIQDESGFNMQVKKNPENGTRTVRVNMPPNIMEALKKHGFEIVSAGG [r19_306_TrROS] | 0.415 ± 0.11 | -0.208 ± 0.46 | 0.337 ± 0.34
SAGPWRIKEVDPDSYTIEIRFGDRPIEIKIPPGKEPSIMIEMDPDGHFQLTIRVPDRTRTFTIPFDDIRSAG [r5_500_TrROS] | 0.86 ± 0.13 | 0.591 ± 0.25 | 0.674 ± 0.19
SAGPWWMITIRLPGNKTITIMFPGVKVEVDPKNNTIRIRNPGLGHSIEFKFDPPGKIKDVDIEPIPPNASAG [r5_342_TrROS] | 3.39 ± 0.21 | 4.49 ± 0.13 | 3.95 ± 0.18
